As a reminder, the Km is the concentration of substrate that gives half-maximal velocity.

In data set [1] the target is (+)-δ-cadinene synthase (DCS, isozyme XC1) (Gossypium arboreum, UniProt Q39761).
Data set [2] has as its system CC(C)=CCC/C(C)=C/CC/C(C)=C/CO[P@@](=O)(O)OP(=O)(O)O. Nature of the data set: purified protein. The data set is classed as biochemical, Gossypium arboreum. Conditions: Mg2+.

Sequence of (+)-δ-cadinene synthase (DCS, isozyme XC1) (Q39761 whole entry): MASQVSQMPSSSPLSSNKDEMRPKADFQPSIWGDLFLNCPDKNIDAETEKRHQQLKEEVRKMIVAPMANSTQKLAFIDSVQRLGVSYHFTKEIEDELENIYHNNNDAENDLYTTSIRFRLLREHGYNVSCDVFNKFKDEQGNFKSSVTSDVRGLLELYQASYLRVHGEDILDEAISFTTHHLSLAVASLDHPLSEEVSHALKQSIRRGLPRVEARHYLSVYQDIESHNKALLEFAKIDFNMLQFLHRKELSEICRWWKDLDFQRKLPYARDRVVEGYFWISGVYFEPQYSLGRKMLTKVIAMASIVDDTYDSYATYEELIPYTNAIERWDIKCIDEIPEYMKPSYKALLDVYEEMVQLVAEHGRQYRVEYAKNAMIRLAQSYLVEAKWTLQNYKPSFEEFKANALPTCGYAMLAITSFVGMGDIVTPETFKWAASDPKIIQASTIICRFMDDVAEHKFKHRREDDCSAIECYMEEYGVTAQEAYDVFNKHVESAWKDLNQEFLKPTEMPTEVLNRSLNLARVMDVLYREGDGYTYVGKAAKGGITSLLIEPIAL

Turning to `CC(C)=CCC/C(C)=C/CC/C(C)=C/CO[P@@](=O)(O)OP(=O)(O)O` [FPP], in data set [1], the Michaelis constant (Km) was found to be 3.2 ± 0.5 µM.
Turning to “(+)-δ-cadinene synthase (DCS, isozyme XC1) (Gossypium arboreum; D308A)”, the Km in data set [2] is 43 ± 16 µM.
Same read-out and setting: next, “(+)-δ-cadinene synthase (DCS, isozyme XC1) (Gossypium arboreum; D451A)”: 2.4 ± 0.3 µM; “(+)-δ-cadinene synthase (DCS, isozyme XC1) (Gossypium arboreum; D452A)”: 3.1 ± 1.2 µM.

For the origin of these results see paper PMC2714943 (Biochemistry, 2009).
